Changes are numbered by the printed parent chain.
B1: mAb T12 (antibody, V domains shown)
VH: not shown
VL: DIQMTQSPSSLSASVGDRVTITCKASQDVSIGVAWYQQKPGKAPKLLIYSASYRYTGVPSRFSGSGSGTDFTLTISSLQPEDFATYYCQQYYIYPYTFGQGTKVEIKR
B2: mAb T2 (antibody, human IgG1, kappa, V domains shown)
VH: EVQLVESGGGLVQPGGSLRLSCAASGFTFTDYTMDWVRQAPGKGLEWVADVNPNSGGSIYNQRFKGRFTLSVDRSKNTLYLQMNSLRAEDTAVYYCARNLGPSFYFDYWGQGTLVTVSS
VL: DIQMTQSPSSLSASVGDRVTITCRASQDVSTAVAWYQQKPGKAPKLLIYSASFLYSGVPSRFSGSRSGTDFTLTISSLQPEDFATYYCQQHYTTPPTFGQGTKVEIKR
notes: Pertuzumab heavy chain with a mutated trastuzumab light chain
B3: mAb T43 (antibody, V domains shown)
VH: B2 VH with T30A, G57A
VL: DIQMTQSPSSLSASVGDRVTITCRASQDVSTAVAWYQQKPGKAPKLLIYSASFLYYGVPSRFSGSRSGTDFTLTISSLQPEDFATYYCQQHYTWPPTFGQGTKVEIKR
B4: mAb T25 (antibody, V domains shown)
VH: B2 VH with G57A
VL: B1 VL
notes: Residue 56 counted along the entry is also G
B5: mAb T26 (antibody, V domains shown)
VH: B2 VH with T30A, G57A
VL: B1 VL
B6: mAb T7 (antibody, human IgG1, kappa, V domains shown)
VH: B2 VH
VL: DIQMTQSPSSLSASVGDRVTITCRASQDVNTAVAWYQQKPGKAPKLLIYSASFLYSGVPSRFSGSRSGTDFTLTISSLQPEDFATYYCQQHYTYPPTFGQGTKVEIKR
notes: as for B2
B7: mAb T8 (antibody, human IgG1, kappa, V domains shown)
VH: B2 VH
VL: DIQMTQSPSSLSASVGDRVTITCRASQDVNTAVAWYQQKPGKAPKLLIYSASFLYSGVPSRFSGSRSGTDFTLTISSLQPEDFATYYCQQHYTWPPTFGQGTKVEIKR
notes: as for B2
B8: mAb T10 (antibody, human IgG1, kappa, V domains shown)
VH: B2 VH
VL: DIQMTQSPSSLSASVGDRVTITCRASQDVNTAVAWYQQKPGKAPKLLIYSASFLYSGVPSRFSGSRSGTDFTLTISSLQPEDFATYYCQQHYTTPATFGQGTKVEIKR
notes: as for B2
B9: mAb T5 (antibody, human IgG1, kappa, V domains shown)
VH: B2 VH
VL: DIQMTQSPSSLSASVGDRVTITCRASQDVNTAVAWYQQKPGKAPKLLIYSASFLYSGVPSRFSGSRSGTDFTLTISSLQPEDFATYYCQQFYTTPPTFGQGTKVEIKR
notes: as for B2
B10: mAb T9 (antibody, human IgG1, kappa, V domains shown)
VH: B2 VH
VL: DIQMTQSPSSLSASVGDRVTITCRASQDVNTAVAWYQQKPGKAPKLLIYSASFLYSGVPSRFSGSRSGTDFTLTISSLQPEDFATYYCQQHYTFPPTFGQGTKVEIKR
notes: as for B2
B11: mAb T4 (antibody, human IgG1, kappa, V domains shown)
VH: B2 VH
VL: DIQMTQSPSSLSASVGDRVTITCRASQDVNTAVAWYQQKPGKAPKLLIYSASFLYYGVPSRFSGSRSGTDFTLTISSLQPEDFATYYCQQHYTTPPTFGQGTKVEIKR
notes: as for B2
B12: mAb T3 (antibody, human IgG1, kappa, V domains shown)
VH: B2 VH
VL: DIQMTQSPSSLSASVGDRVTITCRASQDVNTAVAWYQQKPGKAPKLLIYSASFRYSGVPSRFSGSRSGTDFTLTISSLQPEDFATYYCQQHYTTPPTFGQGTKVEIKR
notes: as for B2

target: T1, HER2 extracellular domain (human, UniProt P04626 23-652); assay: ELISA, HER2 ECD coated on plate; T12 is the weaker comparator
T1 construct: extracellular domain; also called ErbB2; HER2 ECD
Experimental: (§1) The binding potency of antibodies to the antigen HER2 was determined using an ELISA assay. The HER2 extracellular domain was coated overnight on 96-well plates by adding 0.2 ug/100 ul/well of HER2 extracellular domain solution. The plates were washed 6 times with PBS, and blocked with 3% BSA and incubated for 2 hours. The plates were again washed 6 times with PBS. After 1 hour of binding, the plates were washed 6 times with PBS. Horse radish peroxidase (HRP) conjugated secondary antibody was added and incubated for 1 hr. HRP substrate TMB was added to each well and luminescence was read on plate reader. The data were then fitted into 4-parameter sigmoidal curve to generate IC50. Each sample was run in triplicate.

| binding result | Binder |
| --- | --- |
| binds | B1 |

target: T1, HER2 extracellular domain; assay: ELISA, HER2 ECD coated on plate
Experimental: as §1

| binding result | Binder |
| --- | --- |
| binds | B2 |
| binds | B3 |
| binds | B4 |
| binds | B5 |
| binds | B6 |
| binds | B7 |
| binds | B8 |
| binds | B9 |
| binds | B10 |
| binds | B11 |
| binds | B12 |
